Data: patent US7608265B2, “Treatment for bacterial infections” (priority 2004, dated 2009)
In brackets after ≈: the same amount, converted by molar mass. Where two headings read alike, the source gives them in different places.

Experiments:
[1] = test system: Vancomycin resistant Enterococcus faecium; experiment: Combination drug MIC (checkerboard), Enterococcus faecium; format: cell-based
[2] = test system: Clostridium difficile NCR 1104; experiment: microbe, parasite or virus in culture; format: cell-based
C. difficile 14000287 = experiment: Combination drug MIC (checkerboard), C. difficile 14000287, Brucella broth; format: cell-based, Clostridium difficile
C. difficile NCTC 11204 = experiment: Combination drug MIC (checkerboard), C. difficile NCTC 11204, RCM; format: cell-based, Clostridium difficile
Clostridium difficile = experiment: Growth of Clostridium difficile in the presence of SCFA and H1L1 (OD600); format: cell-based; settings: for Mean Optical Density at 24 Hours: OD600
Description: The three SCFAs used were acetate, propionate and butyrate.
Each was prepared to a concentration of 1 M as follows: • Sodium acetate FW 82.03-82.03 g in 1 litre dH2O • Sodium butyrate FW 110.09-110.09 g in 1 litre dH2O • Sodium propionate FW 96.06-96.06 g in 1 litre dH2O
The three solutions were combined in a ratio of 70:20:10 respectively. Therefore, in the final solution the concentrations were sodium acetate 0.7 M, sodium butyrate 0.2 M and sodium propionate 0.1 M. The final concentration of total SCFA was 1 M.
From this stock solution concentrations of 5, 10, 20, 30, 40 and 50 mM total SCFA were prepared using reinforced clostridial medium (RCM, DIFCO).
Reinforced clostridial medium (RCM) was prepared according to the manufacturers instructions: 38 g in 1 litre dH2O
Cultures were only removed from anaerobic conditions immediately prior to use.
An overnight suspension of C. difficile was made by inoculation 10 ml of RCM medium with colonies from a 48 hour old Columbia Blood Agar plate of the organism. The suspension was incubated for 24 hours at 37° C. under anaerobic conditions.
In a flat-bottomed 96 well microtitre plate control solutions (200 μl) were placed in the wells as outlined below in Table 4. Each control used 3 wells.
In a flat-bottomed 96 well microtitre plate (rows labelled A-H, columns labelled 1-12) test solutions (100 μl) were placed in the wells as detailed below. The two test solutions, SCFA plus H1L1, give a combined volume of 200 μl. Each test used 2 wells. […] Wells in columns 1 and 2 contained 16 μg/ml H1L1; in columns 3 and 4, 8 μg/ml H1L1; in columns 5 and 6, 4 μg/ml H1L1; in columns 7 and 8, 2 μg/ml H1L1; in columns 9 and 10, 1 μg/ml H1L1; in columns 11 and 12, 0.5 μg/ml H1L1. Row G was empty. 200 μl RCM was placed into all the wells in row H as a growth control for the plate.
The overnight suspension, culture at late log phase, was used to inoculate the microtitre plates. 20 μl (approx 10% inoculum) was added to all the wells, except for the media/negative control on the control plate.
Plates were incubated at 37° C. under anaerobic conditions for 24 hours.
Optical density readings (OD600 nm) were made at time points zero and 24 hours. Average OD600 nm readings were determined.

[3] = test system: C. difficile acetyl-CoA acetyl transferase (thiolase); experiment: Immunoblot of H1L1 against cloned acetyl-CoA acetyl transferase; format: binding, Clostridium difficile; settings: H1L1 at 1:10 (approximately 400 μg/ml), purified His-tag thiolase, band just under 50 kD marker
Description: Cloned and purified acetyl-CoA acetyl transferase was mixed 1:1 with loading buffer and DTT and put on heating block at 90° C. for 5 minutes. 5-15 μl was separated for 35 minutes on a 10% BisTris gel (Invitrogen) using NuPAGE-MES SDS running buffer (Invitrogen).
The proteins were transblotted onto Invitrolon PVDF membrane (Invitrogen Ltd, Carlsbad, Calif., USA) and blocked in 5% skimmed milk in 0.1% Tween20 in 10 mM PBS for 1 hour. The membrane was incubated with H1L1 at 1:10 (concentration approximately 400 μg/ml) in 0.1% Tween20 in 10 mM PBS for 1 hour. Washed three times for 5 minutes with 0.1% Tween20 in 10 mM PBS and then incubated for one hour with S-protein HRP conjugate (Novagen) at 1:1000.

[4] = gentamicin + H1L1 combination, Brucella broth
[5] = 8 μg/ml of H1L1 and SCFA from 10-50 mM

Sequence of C. difficile acetyl-CoA acetyl transferase (thiolase) (as listed by the source): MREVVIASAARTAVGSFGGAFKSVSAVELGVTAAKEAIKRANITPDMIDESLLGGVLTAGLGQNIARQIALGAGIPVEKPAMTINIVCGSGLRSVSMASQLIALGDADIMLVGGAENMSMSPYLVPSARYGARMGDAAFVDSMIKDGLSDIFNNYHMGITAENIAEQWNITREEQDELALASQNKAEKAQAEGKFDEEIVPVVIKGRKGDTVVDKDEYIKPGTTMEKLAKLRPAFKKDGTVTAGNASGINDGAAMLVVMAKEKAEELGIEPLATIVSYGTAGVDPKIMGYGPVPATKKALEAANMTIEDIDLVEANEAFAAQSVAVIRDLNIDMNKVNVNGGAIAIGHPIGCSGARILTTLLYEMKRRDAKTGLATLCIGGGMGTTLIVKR

CN[C@H](CC(C)C)C(=O)N[C@H]1C(=O)N[C@@H](CC(N)=O)C(=O)N[C@H]2C(=O)N[C@H]3C(=O)N[C@H](C(=O)N[C@H](C(=O)O)c4cc(O)cc(O)c4-c4cc3ccc4O)[C@H](O)c3ccc(c(Cl)c3)Oc3cc2cc(c3O[C@@H]2O[C@H](CO)[C@@H](O)[C@H](O)[C@H]2O[C@H]2C[C@](C)(N)[C@H](O)[C@H](C)O2)Oc2ccc(cc2Cl)[C@H]1O [Vancomycin, vancomycin]
FICI [1]: 0.37 | MIC (μg/ml) of each agent Combination [1]: 16 µg/mL | Outcome [1]: Synergy | MIC ([1]; Enterococcus faecium, 24 h, read-out: MIC (μg/ml) of each agent Alone): 128 µg/mL | FICI [2]: 0.125 | MIC (μg/ml) of each agent Combination [2]: 0.125 µg/mL | Outcome [2]: Synergy | MIC ([2]; Clostridioides difficile, NCR1104, 48 h, read-out: MIC (μg/ml) of each agent Alone): 1 µg/mL (≈ 0.69 µM)

gentamicin [reference compound]
MIC (μg/ml) of each agent Alone (C. difficile 14000287; Brucella broth): 8 µg/mL | FIC (μg/ml) (C. difficile 14000287; [4]): 0.25 | FICI (C. difficile 14000287; [4]): 0.266 | MIC (μg/ml) of each agent Combination (C. difficile 14000287; [4]): 2 µg/mL | Outcome (C. difficile 14000287; [4]): Synergy | MIC (μg/ml) of each agent Alone (C. difficile NCTC 11204): 16 µg/mL | FIC (μg/ml) (C. difficile NCTC 11204; gentamicin + H1L1 combination): 0.25 | FICI (C. difficile NCTC 11204; gentamicin + H1L1 combination): 0.375 | MIC (μg/ml) of each agent Combination (C. difficile NCTC 11204; gentamicin + H1L1 combination): 4 µg/mL | Outcome (C. difficile NCTC 11204; gentamicin + H1L1 combination): Synergy

B1: H1L1: synthetic antibody S Tag-CDH1-Linker-CDL1-His Tag, SEQ ID NO: 41, from dominant VH and VL of C. difficile patients; binds acetyl-CoA acetyltransferase (protein)
chain: EVQLVESGPGLVKPSETLSLTCTVSGGSVSSGSYSWSWIRQRPGQGLEWIGFIYYTGYTSYKSSLKSRVSLSVDTSNDQFSLSLSSVTAADTAVYYCAREIRAPDHHDFSGYLGRWGQGTLVTVSSGGSGGGGSGGGGSASKSSELTQDPAVSVALGQTVRITCQGDSLRSYYASWYQQKPGQAPVLVIYGKNNRPSGIPDRFSGSSSGNTASLTITGAQAEDEADYYCNSRDSTGNQLFGGGTKVTVLG
modifications: synthetic H1L1 antibody
Interaction of H1L1 and SCFA (Clostridium difficile; [5]): Synergy | optical density at 24 hours (Clostridium difficile; [5]): 0.296-0.330 | Effect on growth (Clostridium difficile; 16 μg/ml of H1L1 alone): inhibition | Effect on growth (Clostridium difficile; 0.5, 1, 2, 4 and 8 μg/ml of H1L1 alone): No effect | Interaction of H1L1 and SCFA (Clostridium difficile; 1, 2 and 4 μg/ml of H1L1 and 5 mM of SCFA (data not shown)): Indifference | Mean Optical Density at 24 Hours (Clostridium difficile; H1L1 0.5 μg/ml alone): 0.450 | Mean Optical Density at 24 Hours (Clostridium difficile; H1L1 1 μg/ml alone): 0.440 | Mean Optical Density at 24 Hours (Clostridium difficile; H1L1 2 μg/ml alone): 0.440 | Mean Optical Density at 24 Hours (Clostridium difficile; H1L1 4 μg/ml alone): 0.440 | Mean Optical Density at 24 Hours (Clostridium difficile; H1L1 8 μg/ml + SCFA 10 mM): 0.310 | Mean Optical Density at 24 Hours (Clostridium difficile; H1L1 8 μg/ml + SCFA 20 mM): 0.296 | Mean Optical Density at 24 Hours (Clostridium difficile; H1L1 8 μg/ml + SCFA 30 mM): 0.305 | Mean Optical Density at 24 Hours (Clostridium difficile; H1L1 8 μg/ml + SCFA 40 mM): 0.310 | Mean Optical Density at 24 Hours (Clostridium difficile; H1L1 8 μg/ml + SCFA 50 mM): 0.330 | Mean Optical Density at 24 Hours (Clostridium difficile; H1L1 8 μg/ml alone): 0.420 | Mean Optical Density at 24 Hours (Clostridium difficile; H1L1 16 μg/ml + SCFA 10 mM): 0.308 | Mean Optical Density at 24 Hours (Clostridium difficile; H1L1 16 μg/ml + SCFA 20 mM): 0.228 | Mean Optical Density at 24 Hours (Clostridium difficile; H1L1 16 μg/ml + SCFA 30 mM): 0.308 | Mean Optical Density at 24 Hours (Clostridium difficile; H1L1 16 μg/ml + SCFA 40 mM): 0.303 | Mean Optical Density at 24 Hours (Clostridium difficile; H1L1 16 μg/ml + SCFA 50 mM): 0.281 | Mean Optical Density at 24 Hours (Clostridium difficile; H1L1 16 μg/ml alone): 0.334 | MIC (μg/ml) of each agent Alone ([1]; agent alone, 24 h): 512 µg/mL | FIC (μg/ml) ([1]; vancomycin + H1L1 combination): 0.25 | MIC (μg/ml) of each agent Combination ([1]; vancomycin + H1L1 combination): 128 µg/mL | Outcome ([1]; vancomycin + H1L1 combination): synergy (synergy was defined by a value of <=0.5) | Outcome of combination (C. difficile 14000287; H1L1 and vancomycin versus C. difficile 14000287): synergy (synergy was defined by a value of <=0.5) | MIC (μg/ml) of each agent Alone (C. difficile 14000287; Brucella broth): 512 µg/mL | FIC (μg/ml) (C. difficile 14000287; [4]): 0.0156 | MIC (μg/ml) of each agent Combination (C. difficile 14000287; [4]): 8 µg/mL | Outcome (C. difficile 14000287; [4]): synergy (synergy was defined by a value of <=0.5) | Immunoblot response to the thiolase band [3]: strong response | MIC (μg/ml) of each agent Alone (C. difficile NCTC 11204): 512 µg/mL | FIC (μg/ml) (C. difficile NCTC 11204; gentamicin + H1L1 combination): 0.125 | MIC (μg/ml) of each agent Combination (C. difficile NCTC 11204; gentamicin + H1L1 combination): 64 µg/mL | Outcome (C. difficile NCTC 11204; gentamicin + H1L1 combination): synergy (synergy was defined by a value of <=0.5) | FIC (μg/ml) [2]: 0.0004 | MIC (μg/ml) of each agent Combination [2]: 0.25 µg/mL | Outcome [2]: synergy (key: synergy was defined by a value of <=0.5; indifference was defined by a value of >0.5 to <4; antagonism was defined by a value of >=4.0)
